Patent publication US20240294593A1 (Genentech, published 2024)
Changes are numbered by the printed parent chain. Numbers in names are those of the source.

B1: H1.72_L1 (antibody, human IgG1, kappa, V domains shown)
VH: EVQLVESGGGLVQPGGSLRLSCAASGFTFSSFGMHWVRQAPGKGLEWVSYISSGSAIIYYADSVKGRFTISRDNAKNSLYLQMNSLRAEDTAVYYCARGGRLVWSPDYWGQGTLVTVSS
VL: DIVMTQSPDSLAVSLGERATINCKSSQSLLNSGNQKNYLTWYQQKPGQPPKLLIYWASTRESGVPDRFTGSGSGTDFTLTISSLQAEDVAVYYCQNDYSYPFTFGSGTKLEIKR
notes: also called VH-S60A; Kabat 55; copies: 2 + 2
B2: H1.1_L1 (antibody, human IgG1, kappa, V domains shown)
VH: B1 VH with S30T, A56S
VL: B1 VL
notes: also called VH-S30T; Kabat 30T; copies: 2 + 2
B3: H1.11_L1 (antibody, human IgG1, kappa, V domains shown)
VH: B1 VH with S31Q, A56S
VL: B1 VL
notes: also called VH-S31Q; Kabat 31Q; copies: 2 + 2
B4: H1.28_L1 (antibody, human IgG1, kappa, V domains shown)
VH: B1 VH with G33T, A56S
VL: B1 VL
notes: also called VH-G35T; Kabat 33T; copies: 2 + 2
B5: H1.6_L1 (antibody, human IgG1, kappa, V domains shown)
VH: B1 VH with S30H, A56S
VL: B1 VL
notes: also called VH-S30H; Kabat 30H; copies: 2 + 2
B6: H1.36_L1 (antibody, human IgG1, kappa, V domains shown)
VH: B1 VH with S52T, A56S
VL: B1 VL
notes: also called VH-S54T; Kabat 52T; copies: 2 + 2
B7: H1.18_L1 (antibody, human IgG1, kappa, V domains shown)
VH: B1 VH with F32Y, A56S
VL: B1 VL
notes: also called VH-F34Y; Kabat 32Y; copies: 2 + 2
B8: H1.23_L1 (antibody, human IgG1, kappa, V domains shown)
VH: B1 VH with F32Q, A56S
VL: B1 VL
notes: also called VH-F34Q; Kabat 32Q
B9: H1.9_L1 (antibody, human IgG1, kappa, V domains shown)
VH: B1 VH with S31T, A56S
VL: B1 VL
notes: also called VH-S31T; Kabat 31T; copies: 2 + 2
B10: H1.30_L1 (antibody, human IgG1, kappa, V domains shown)
VH: B1 VH with G33H, A56S
VL: B1 VL
notes: also called VH-G35H; Kabat 33H
B11: H1.13_L1 (antibody, human IgG1, kappa, V domains shown)
VH: B1 VH with S31V, A56S
VL: B1 VL
notes: also called VH-S31V; Kabat 31V; copies: 2 + 2
B12: H1.24_L1 (antibody, human IgG1, kappa, V domains shown)
VH: B1 VH with F32S, A56S
VL: B1 VL
notes: also called VH-F34S; Kabat 32S; copies: 2 + 2
B13: H1.7_L1 (antibody, human IgG1, kappa, V domains shown)
VH: B1 VH with S30K, A56S
VL: B1 VL
notes: also called VH-S30K; Kabat 30K; copies: 2 + 2
B14: H1.16_L1 (antibody, human IgG1, kappa, V domains shown)
VH: B1 VH with S31K, A56S
VL: B1 VL
notes: also called VH-S31K; Kabat 31K; copies: 2 + 2
B15: H1.20_L1 (antibody, human IgG1, kappa, V domains shown)
VH: B1 VH with F32W, A56S
VL: B1 VL
notes: also called VH-F34W; Kabat 32W; copies: 2 + 2
B16: H1.17_L1 (antibody, human IgG1, kappa, V domains shown)
VH: B1 VH with S31Y, A56S
VL: B1 VL
notes: also called VH-S31Y; Kabat 31Y; copies: 2 + 2
B17: H1.29_L1 (antibody, human IgG1, kappa, V domains shown)
VH: B1 VH with G33N, A56S
VL: B1 VL
notes: also called VH-G35N; Kabat 33N
B18: mAb C H1.19_L1 (antibody, name in Kabat numbering, V domains shown)
VH: B1 VH with F32L, A56S
VL: DIVMTQSPDSLAVSLGERATINCKSSQSLLNSGNQKNYLTWYQQKPGQPPKLLIYWASTRESGVPDRFTGSGSGTDFTLTISSLQAEDVAVYYCQNDYSYPFTFGSGTKLEIK
B19: H1.5_L1 (antibody, human IgG1, kappa, V domains shown)
VH: B1 VH with S30V, A56S
VL: B1 VL
notes: also called VH-S30V; Kabat 30V; copies: 2 + 2
B20: H1.25_L1 (antibody, human IgG1, kappa, V domains shown)
VH: B1 VH with F32K, A56S
VL: B1 VL
notes: also called VH-F34K; Kabat 32K; copies: 2 + 2
B21: H1.22_L1 (antibody, human IgG1, kappa, V domains shown)
VH: B1 VH with F32H, A56S
VL: B1 VL
notes: also called VH-F34H; Kabat 32H; copies: 2 + 2
B22: H1.15_L1 (antibody, human IgG1, kappa, V domains shown)
VH: B1 VH with S31D, A56S
VL: B1 VL
notes: also called VH-S31D; Kabat 31D; copies: 2 + 2
B23: H1.21_L1 (antibody, human IgG1, kappa, V domains shown)
VH: B1 VH with F32I, A56S
VL: B1 VL
notes: also called VH-F34I; Kabat 32I; copies: 2 + 2
B24: H1.4_L1 (antibody, human IgG1, kappa, V domains shown)
VH: B1 VH with S30G, A56S
VL: B1 VL
notes: also called VH-S30G; Kabat 30G; copies: 2 + 2
B25: H1.2_L1 (antibody, human IgG1, kappa, V domains shown)
VH: B1 VH with S30A, A56S
VL: B1 VL
notes: also called VH-S30A; Kabat 30A; copies: 2 + 2
B26: H1.26_L1 (antibody, human IgG1, kappa, V domains shown)
VH: B1 VH with G33A, A56S
VL: B1 VL
notes: also called VH-G35A; Kabat 33A; copies: 2 + 2
B27: H1.8_L1 (antibody, human IgG1, kappa, V domains shown)
VH: B1 VH with S30Y, A56S
VL: B1 VL
notes: also called VH-S30Y; Kabat 30Y
B28: H1.10_L1 (antibody, human IgG1, kappa, V domains shown)
VH: B1 VH with S31A, A56S
VL: B1 VL
notes: also called VH-S31A; Kabat 31A; copies: 2 + 2
B29: H1.3_L1 (antibody, human IgG1, kappa, V domains shown)
VH: B1 VH with S30Q, A56S
VL: B1 VL
notes: also called VH-S30Q; Kabat 30Q; copies: 2 + 2
B30: H1.12_L1 (antibody, human IgG1, kappa, V domains shown)
VH: B1 VH with S31G, A56S
VL: B1 VL
notes: also called VH-S31G; Kabat 31G; copies: 2 + 2
B31: H1.27_L1 (antibody, human IgG1, kappa, V domains shown)
VH: B1 VH with G33S, A56S
VL: B1 VL
notes: also called VH-G35S; Kabat 33S; copies: 2 + 2
B32: H1.14_L1 (antibody, human IgG1, kappa, V domains shown)
VH: B1 VH with S31H, A56S
VL: B1 VL
notes: also called VH-S31H; Kabat 31H; copies: 2 + 2
B33: H1.31_L1 (antibody, human IgG1, kappa, V domains shown)
VH: B1 VH with G33D, A56S
VL: B1 VL
notes: also called VH-G35D; Kabat 33D; copies: 2 + 2
B34: H1.114_L1 (antibody, V domains shown)
VH: B1 VH with A56S, G99Y
VL: B1 VL
notes: also called VH-G103Y; Kabat 95
B35: H1.116_L1 (antibody, V domains shown)
VH: B1 VH with A56S, G100S
VL: B1 VL
notes: also called VH-G108S; Kabat 96
B36: H1.117_L1 (antibody, V domains shown)
VH: B1 VH with A56S, G100T
VL: B1 VL
notes: also called VH-G108T; Kabat 96
B37: H1.115_L1 (antibody, V domains shown)
VH: B1 VH with A56S, G100A
VL: B1 VL
notes: also called VH-G108A; Kabat 96

Target: T1, human PD-1-His (human, UniProt Q15116 25-167, limits assumed)
T1 construct: Antigen of the Octet assays; not shown: His tag
Assay: Octet

T1 sequence (Q15116 25-167 limits assumed): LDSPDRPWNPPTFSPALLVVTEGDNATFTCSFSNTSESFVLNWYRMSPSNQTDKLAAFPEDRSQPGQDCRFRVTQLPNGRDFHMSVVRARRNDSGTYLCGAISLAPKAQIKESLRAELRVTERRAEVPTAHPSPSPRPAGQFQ

Binder | Kd | koff | kon
B1 | 62.5 nM | 0.00701 s⁻¹ | 112000 M⁻¹ s⁻¹

Target: T1, human PD-1-His
Assay: Octet
Remark: another data set of the same source

Binder | Kd | koff | kon
B2 | 32.1 nM | 0.00407 s⁻¹ | 127000 M⁻¹ s⁻¹
B3 | 36.8 nM | 0.00454 s⁻¹ | 123000 M⁻¹ s⁻¹
B4 | 92.7 nM | 0.0279 s⁻¹ | 301000 M⁻¹ s⁻¹
B5 | 48.5 nM | 0.00529 s⁻¹ | 109000 M⁻¹ s⁻¹
B6 | 374 nM | 0.046 s⁻¹ | 123000 M⁻¹ s⁻¹
B7 | 47.9 nM | 0.00597 s⁻¹ | 125000 M⁻¹ s⁻¹
B8 | 73.4 nM | 0.00863 s⁻¹ | 118000 M⁻¹ s⁻¹
B9 | 46.9 nM | 0.00567 s⁻¹ | 121000 M⁻¹ s⁻¹
B10 | 76.4 nM | 0.0257 s⁻¹ | 337000 M⁻¹ s⁻¹
B11 | 50.2 nM | 0.00634 s⁻¹ | 126000 M⁻¹ s⁻¹
B12 | 54.9 nM | 0.00688 s⁻¹ | 125000 M⁻¹ s⁻¹
B13 | 52.5 nM | 0.00545 s⁻¹ | 104000 M⁻¹ s⁻¹
B14 | 47.1 nM | 0.00514 s⁻¹ | 109000 M⁻¹ s⁻¹
B15 | 162 nM | 0.0204 s⁻¹ | 126000 M⁻¹ s⁻¹
B16 | 50.4 nM | 0.00534 s⁻¹ | 106000 M⁻¹ s⁻¹
B17 | 223 nM | 0.0437 s⁻¹ | 196000 M⁻¹ s⁻¹

Binder | Kd | koff | kon
B18 | 16.7 nM | 0.00217 s⁻¹ | 130000 M⁻¹ s⁻¹
B19 | 37.4 nM | 0.00475 s⁻¹ | 127000 M⁻¹ s⁻¹
B20 | 113 nM | 0.012 s⁻¹ | 107000 M⁻¹ s⁻¹
B21 | 34 nM | 0.00358 s⁻¹ | 105000 M⁻¹ s⁻¹
B22 | 40 nM | 0.00557 s⁻¹ | 139000 M⁻¹ s⁻¹
B23 | 27.2 nM | 0.00371 s⁻¹ | 137000 M⁻¹ s⁻¹
B24 | 34 nM | 0.00422 s⁻¹ | 124000 M⁻¹ s⁻¹
B25 | 35.6 nM | 0.00432 s⁻¹ | 121000 M⁻¹ s⁻¹
B26 | 193 nM | 0.036 s⁻¹ | 187000 M⁻¹ s⁻¹
B27 | 51.3 nM | 0.00534 s⁻¹ | 104000 M⁻¹ s⁻¹
B28 | 36.9 nM | 0.00425 s⁻¹ | 115000 M⁻¹ s⁻¹
B29 | 40 nM | 0.00472 s⁻¹ | 118000 M⁻¹ s⁻¹
B30 | 44.2 nM | 0.00537 s⁻¹ | 122000 M⁻¹ s⁻¹
B31 | 104 nM | 0.0142 s⁻¹ | 137000 M⁻¹ s⁻¹
B32 | 45.8 nM | 0.00546 s⁻¹ | 119000 M⁻¹ s⁻¹
B33 | 56.4 nM | 0.0401 s⁻¹ | 711000 M⁻¹ s⁻¹

Target: T1, human PD-1-His
Assay: Octet
Remark: another data set of the same source

Binder | Kd | koff | kon
B34 | 592 nM | 0.0875 s⁻¹ | 148000 M⁻¹ s⁻¹
B35 | 183 nM | 0.0347 s⁻¹ | 190000 M⁻¹ s⁻¹
B36 | 121 nM | 0.0105 s⁻¹ | 86900 M⁻¹ s⁻¹
B37 | 76.7 nM | 0.0116 s⁻¹ | 151000 M⁻¹ s⁻¹
